In article PMC3210380 one finds binding result and Kd data, which are given here for four molecules.

Data set [1] has as its target T1, Aptxcat (HIT-Znf catalytic core) (Schizosaccharomyces pombe, UniProt O74859 30-232).
T1 sequence: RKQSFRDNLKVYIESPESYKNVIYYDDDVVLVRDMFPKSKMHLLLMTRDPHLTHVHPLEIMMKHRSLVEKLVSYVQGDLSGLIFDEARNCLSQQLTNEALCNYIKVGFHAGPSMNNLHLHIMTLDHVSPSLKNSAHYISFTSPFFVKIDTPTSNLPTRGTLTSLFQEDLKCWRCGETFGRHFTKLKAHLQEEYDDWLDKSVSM
The experiment in a line: X-ray crystallography.

The target of another data set is T2, Aptx full-length WT (Schizosaccharomyces pombe, UniProt O74859 1-232).
T2 sequence: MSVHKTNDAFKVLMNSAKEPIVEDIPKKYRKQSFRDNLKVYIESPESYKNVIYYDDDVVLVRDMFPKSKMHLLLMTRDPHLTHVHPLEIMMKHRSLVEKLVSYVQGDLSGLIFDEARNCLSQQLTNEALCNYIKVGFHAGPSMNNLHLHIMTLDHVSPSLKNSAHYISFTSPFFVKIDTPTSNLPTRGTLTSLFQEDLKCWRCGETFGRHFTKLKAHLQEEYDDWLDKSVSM
The experiment in a line: fluorescence polarization.

A further data set has as its target T3, Aptx F65A (Schizosaccharomyces pombe, UniProt O74859 1-232, F65A).
T3 sequence: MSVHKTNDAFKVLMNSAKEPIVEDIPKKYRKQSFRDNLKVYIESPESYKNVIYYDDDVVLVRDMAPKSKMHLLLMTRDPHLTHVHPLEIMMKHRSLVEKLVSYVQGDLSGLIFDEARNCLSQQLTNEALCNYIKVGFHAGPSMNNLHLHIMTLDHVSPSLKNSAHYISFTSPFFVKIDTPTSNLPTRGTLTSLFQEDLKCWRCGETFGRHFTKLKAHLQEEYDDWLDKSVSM
The experiment in a line: fluorescence polarization.

B1: Crystallized duplex, strands A and C (dsDNA)
DNA 1: CCCTG
DNA 2: TATCGGAATCAGGG
modifications: 5'-OH and 3'-OH on both strands
Turning to B1, in data set [1], the binding result is on record as “binds”.

B2: SSB 39-mer (1-nt gap, 3'- and 5'-phosphates) (dsDNA)
DNA 1: CCGAGCATGAATAACCTGCACCTGCATATTATGACTCTG
DNA 2: CAGAGTCATAATATGCAGG
DNA 3: GCAGGTTATTCATGCTCGG
modifications: 3'-phosphate on S5; 5'-phosphate on S6
On to B2, for which the results for the Kd with Aptx full-length WT and in the data set with Aptx F65A were 80 nM and 250 nM, respectively.

B3: 39-mer dsDNA (dsDNA)
DNA 1: CAGAGTCATAATATGCAGGTGCAGGTTATTCATGCTCGG
DNA 2: CCGAGCATGAATAACCTGCACCTGCATATTATGACTCTG
On to B3, for which the Kd – broadly, the constant that tells how readily two partners part at equilibrium – in the data set with Aptx full-length WT amounted to 190 nM. As for CAGAGTCATAATATGCAGGTGCAGGTTATTCATGCTCGG (ssDNA) [39-mer ssDNA], the Kd in the data set with Aptx full-length WT came to 330 nM. This Kd is about 1.7-fold higher than that of the molecule before.
